These results are taken from the supplement of paper PMC10567573.

± gives the standard deviation.

The data set is described as follows: protein stability index of a GFP-peptide fusion (GPS, HEK-293T) (PSI 1-6); higher = more stable.
The mark [1] stands for this setting: treatment: DMSO, c terminus: a fixed tail appended.
Where [2] appears, read: treatment: MLN4924 1 uM, 8 h, c terminus: a fixed tail appended.
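Further: 24-mer peptide tiles fused after GFP, lentivirally expressed, FACS-sorted into six equal bins by GFP/DsRed ratio, decoded by Illumina sequencing, PSI is the read-weighted mean bin number.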

FQREALENSHTNTEVLRNMGFAAK [CHMP4C]: the protein stability index reads like this: under setting [1], 3.59 ± 0.21; under setting [2], 4.08 ± 0.28.

With YGRSDVVVLCFSIANPNSLHHVKT [RHOBTB2], the protein stability index runs as follows: under setting [1], 3.33 ± 0.47; under setting [2], 2.69 ± 1.8.

On to RYLLCELVSDDPRCRLSLDDRVLS [POP5], for which the protein stability index runs as follows: under setting [1], 2.31 ± 0.25; under setting [2], 2.36 ± 0.27.

As to RKWHKASNYIFVAIFWIVFLLLIV [P2RY14], the protein stability index is 3.34 ± 0.35 under setting [1] and 3.43 ± 0.17 under setting [2].

For LTDVSPEPLQALLERASATLQDLV [PRAME], the protein stability index is 3.05 ± 0.16 under setting [1] and 3.33 ± 0.6 under setting [2].

As for LNKPALQAQPLRTTSTLASSLPGH [EHMT1], the protein stability index reads like this: under setting [1], 3.81 ± 0.14; under setting [2], 3.91 ± 0.28.

Consider AARNACRAGTEPSDAIRVVNAVLT [TRIP13], for which the protein stability index runs as follows: under setting [1], 3 ± 0.45; under setting [2], 3.19 ± 0.33.

Turning to PTWWPLPTQVPAAEDYLTWKEWGF [SPAG8], the protein stability index by setting is: under setting [1], 2.58 ± 0.18; under setting [2], 2.35 ± 0.35.

For the sequence KSESSLPHQTSKMENLPGLASGPG, the protein stability index reads like this: under setting [1], 4.87 ± 0.29; under setting [2], 4.43 ± 0.33.

With GGGSLSGGGGSRSISASSARFVSS [KRT15], the protein stability index stood at 4.23 ± 0.47 under setting [1] and 4.39 ± 0.23 under setting [2].

Turning to MRRGAPQDQELVGPGPPGRGSRGA [MOSPD3], the protein stability index came to 5.31 ± 0.44 under setting [1] and 5 ± 0.28 under setting [2].

RGIFVVRGENVVLLGEIDLEKESD [LSM1]: the protein stability index runs as follows: under setting [1], 2.37 ± 0.23; under setting [2], 2.31 ± 0.52.

Take EQKRLERLQRKLVEPKHCFTSPDY [SDE2]: the protein stability index runs as follows: under setting [1], 3.25 ± 0.35; under setting [2], 3.62 ± 0.26.

STPRCAQQAALPRLSRRMASQHSY [CBY2]: the protein stability index was 2.3 ± 0.29 under setting [1] and 2.37 ± 0.079 under setting [2].

As to LGLGTRESHSCPQQVPMPPGQEAQ [NEK8], the protein stability index under setting [1] was determined as 4.98 ± 0.19 and the protein stability index under setting [2] amounted to 4.87 ± 0.097.

Take TYRKVMNWKETLVFPPEVPISEKA [STK38L]: the protein stability index runs as follows: under setting [1], 3.09 ± 0.29; under setting [2], 3.24 ± 0.29.

For LESSEELLETANQTLQAMDSEDFP [FSD1], the protein stability index came out at 5.4 ± 0.19 under setting [1] and 5.57 ± 0.1 under setting [2].

As for GVHVRRTDKVGTEAAFHPIEEYMV [FUT8], the protein stability index under setting [1] was found to be 3.36 ± 0.29 and the protein stability index under setting [2] stood at 3.58 ± 0.27.

ERMWAAIQSWDINSRRNINYRSFE [ZER1]: the protein stability index reads like this: under setting [1], 2.28 ± 0.35; under setting [2], 2.26 ± 0.25.

Regarding TEDLCEKPDDEVKETAHDLDVKSP [RIPK4], the protein stability index by setting is: under setting [1], 5.8 ± 0.26; under setting [2], 5.62 ± 0.27.

Consider REDKATIKCETSPPSSPRTLRLEK [PPFIA4], for which the protein stability index reads like this: under setting [1], 5.51 ± 0.18; under setting [2], 5.45 ± 0.15.

With MANIHQENEEMEQPMQNGEEDRPL [BEX3], the protein stability index reads like this: under setting [1], 5.46 ± 0.055; under setting [2], 5.71 ± 0.087.

As to NIMMPMGGMMPPGPGIPPLMPGMP [ZNF207], the protein stability index was 2.87 ± 0.29 under setting [1] and 2.88 ± 0.13 under setting [2].

QYYEACRKAAKSLIKLGLERFHGV [ACSBG2]: the protein stability index runs as follows: under setting [1], 3.51 ± 1.3; under setting [2], 3.45 ± 0.44.

Turning to RDSSFLISGGFDRTVAIWDVAEGY [WDR88], the protein stability index was 2.71 ± 0.16 under setting [1] and 2.86 ± 0.23 under setting [2].

AFGYFITACAVIILTIICYLGLPR [SLC29A1] had a protein stability index under setting [1] of 2.3 ± 0.52 and a protein stability index under setting [2] of 2.32 ± 0.41.

Take PSPAAVPRPPSNPPARGTLKTSNL [TRAF3IP2]: the protein stability index worked out at 5.12 ± 0.1 under setting [1] and 4.94 ± 0.21 under setting [2].

For VALLTGKFSNIVDKFVIVDCRYPY [CDC25B], the protein stability index is, setting by setting: under setting [1], 2.45 ± 1.7; under setting [2], 2.59 ± 1.2.

For the sequence LAPDFDRWLDESDAEMELRAKEEE [HACD3], the protein stability index runs as follows: under setting [1], 5.52 ± 0.12; under setting [2], 5.45 ± 0.21.

Regarding LRAELTKVEEEIVTLRQVLAAKER [TPD52L2], the protein stability index runs as follows: under setting [1], 2.93 ± 0.31; under setting [2], 3.45 ± 0.3.

On to ETIQGFWLLTKIDHWNNEKERILL [TPRG1], for which the protein stability index was 2.59 ± 0.44 under setting [1] and 2.73 ± 0.59 under setting [2].

For the sequence SQIQYMNTVVSTYVTTNVSLIPPR [TMEM106C], the protein stability index was determined as 2.12 ± 0.22 under setting [1] and 2.07 ± 0.12 under setting [2].

Regarding YLLKFLLVGDSDVGKGEILESLQD [RAB40C], the protein stability index runs as follows: under setting [1], 2.72 ± 0.38; under setting [2], 2.45 ± 0.49.

GVPGQPLNFKAEPESETSILLSWT [PTPRD] displayed a protein stability index under setting [1] of 2.83 ± 0.27 and a protein stability index under setting [2] of 2.98 ± 0.49.

Sequence MHPINVRRDPSIPIYGLRQSILLN [C22orf31] yielded a protein stability index under setting [1] of 2.33 ± 0.22 and a protein stability index under setting [2] of 2.63 ± 0.51.

In the case of QEYEALLNIKVKLEAEIATYRRLL [KRT18], the protein stability index under setting [1] turned out to be 2.89 ± 0.28 and the protein stability index under setting [2] amounted to 2.82 ± 0.42.

VIEPVVENSGILQGKLIKRQRLAK [EFHC1] yielded a protein stability index under setting [2] of 3.68 ± 0.65.

As for KALQEENRDLRKASVTIQARAEQE [CCDC6], the protein stability index is, setting by setting: under setting [1], 5.32 ± 0.2; under setting [2], 5.32 ± 0.091.

Take DEAKAPHWTSAPLTEASAHSHPPE [MAP2]: the protein stability index is, setting by setting: under setting [1], 5.39 ± 0.16; under setting [2], 5.37 ± 0.075.

As to AKHMGLEPPPEVWQVLKTHPGDPR [POLD4], the protein stability index runs as follows: under setting [1], 3.77 ± 0.25; under setting [2], 3.93 ± 0.48.

On to VRGEDSGRKPERRRLKTTRLKEYT [DAPK3], for which the protein stability index is, setting by setting: under setting [1], 3.97 ± 0.45; under setting [2], 4.51 ± 0.17.

Turning to VDGVWTAQRPGITHGVGLVLRVEQ [SCNN1D], the protein stability index under setting [1] turned out to be 2.21 ± 0.35 and the protein stability index under setting [2] stood at 2.44 ± 0.24.

On to DPSSTKPGTLLKTSPSPERSLLLK [TRIM14], for which the protein stability index by setting is: under setting [1], 4.59 ± 0.2; under setting [2], 4.67 ± 0.21.

Consider SASASTTTTVTAVTAEVDLFGDAF [SNAP91], for which the protein stability index came out at 4.28 ± 0.28 under setting [1] and 4.28 ± 0.29 under setting [2].

The sequence AQFHCAYQLADWCLHHICTNYNNV [RHOBTB2] returned a protein stability index under setting [1] of 3.34 ± 0.36 and a protein stability index under setting [2] of 3.15 ± 0.89.

As to DALRNLKCGSGARGGDGEVASAPL [TRADD], the protein stability index runs as follows: under setting [1], 4.15 ± 0.38; under setting [2], 4.05 ± 0.3.

As for RNKESPVFAPVYFPEELHRKAALE [HMOX1], the protein stability index reads like this: under setting [1], 4.11 ± 0.4; under setting [2], 4.147 ± 0.023.

SRPNGTSAMLLVTLGKVLKVIVVM [MED27]: the protein stability index is 2.88 ± 0.46 under setting [1] and 2.93 ± 0.68 under setting [2].

In turn, DNHNLIERRRRFNINDRIKELGTL [TFE3] came in with a protein stability index under setting [1] of 3.33 ± 0.13 and a protein stability index under setting [2] of 3.69 ± 0.22.

As to KIVEFNPMVLKGKIRPDSSRPELL [GLT8D2], the protein stability index reads like this: under setting [1], 3.09 ± 0.36; under setting [2], 3.35 ± 0.39.

As for NSLFIDRQKCMAHRTRYPTILQLA [TEKT4], the protein stability index by setting is: under setting [1], 2.23 ± 0.34; under setting [2], 2.12 ± 0.23.

Regarding FHITNDEPIPFWTFLSRILTGLNY [NSDHL], the protein stability index was determined as 2.45 ± 0.58 under setting [1] and 2.2 ± 0.15 under setting [2].

On to VAPPAKQAQQKKAPAKKANSTTTA [BRD3], for which the protein stability index reads like this: under setting [1], 5.11 ± 0.26; under setting [2], 5.26 ± 0.13.

Consider EAFYYIHNLVVACEIQVRTLASAG [ADD1], for which the protein stability index reads like this: under setting [1], 2.93 ± 0.63; under setting [2], 2.98 ± 0.57.

TIVEEVQDGKVISSREQVHQTTR [KRT17] came in with a protein stability index (treatment: DMSO, c terminus: native) of 5.03 ± 0.23 and a protein stability index (treatment: MLN4924 1 uM, 8 h, c terminus: native) of 5.08 ± 0.25.

QDSPGPREAVSQLRELCRLWLRPE [ZNF24] gave a protein stability index under setting [1] of 3.11 ± 0.32 and a protein stability index under setting [2] of 2.9 ± 0.24.

Take LNFKAEPESETSILLSWTPPRSDT [PTPRD]: the protein stability index worked out at 3.3 ± 0.36 under setting [1] and 3.45 ± 0.28 under setting [2].

In the case of GGKIIMPPSALDQLSRLNITYPML [UFD1], the protein stability index by setting is: under setting [1], 2.16 ± 0.089; under setting [2], 2.28 ± 0.2.

In the case of NMPETLPNNSCYSAGIAKLEEGDE [TNFSF13B], the protein stability index is, setting by setting: under setting [1], 5.35 ± 0.23; under setting [2], 5.5 ± 0.21.

NKVELQAKVESMDQEIKFFRCLFE [KRT71]: the protein stability index was 2.52 ± 0.51 under setting [1] and 2.48 ± 0.38 under setting [2].

With CAYRTHLVAGIGFYQHLLLYIQSH [SMG5], the protein stability index under setting [1] was determined as 3.01 ± 0.63 and the protein stability index under setting [2] came out at 3.34 ± 0.87.

Regarding EAARNGKMKFVIGNGKNLVDFTFV [NSDHL], the protein stability index by setting is: under setting [1], 2.17 ± 0.47; under setting [2], 2.04 ± 0.35.

As for KEDQAWDGASQDCPPLPAGVSFHI [FBXO34], the protein stability index is, setting by setting: under setting [1], 3.58 ± 0.33; under setting [2], 3.46 ± 0.31.

On to KAMNMRYSDRTNIISKPVPQTLIM [FEM1C], for which the protein stability index reads like this: under setting [1], 2.09 ± 0.14; under setting [2], 2.38 ± 0.5.

Take SGTGKKEKEKKNRKGKDKENGSVS [EIF5]: the protein stability index is, setting by setting: under setting [1], 5.36 ± 0.24; under setting [2], 5.31 ± 0.21.

Regarding LIQHQRIHKGEKPYQCSQCSKSYS [ZSCAN9], the protein stability index was determined as 2.89 ± 0.3 under setting [1] and 3.26 ± 0.26 under setting [2].

As for QTVFQKKNLQQTTNTTSTQMTNIG [IQUB], the protein stability index by setting is: under setting [1], 4.08 ± 0.2; under setting [2], 4.28 ± 0.27.

Turning to PESAIKFMAYEQIKRLVGSDQETL [SLC25A25], the protein stability index is, setting by setting: under setting [1], 3.31 ± 0.15; under setting [2], 3.4 ± 0.25.

DEKINIYCLTCEVPTCSMCKVFGI [TRIM63]: the protein stability index is 2.43 ± 0.14 under setting [1] and 2.45 ± 0.32 under setting [2].

Regarding KPVLAKDSSNPYPNFNFNISHQGD [AASDHPPT], the protein stability index reads like this: under setting [1], 4.22 ± 0.22; under setting [2], 4.01 ± 0.18.

As to REKGGKVLVHCEAGISRSPTICMA [DUSP5], the protein stability index worked out at 2.93 ± 0.27 under setting [1] and 3.03 ± 0.38 under setting [2].

In the case of VLTDSEGWILIDRCGKHFGTILNY [KCTD10], the protein stability index came to 2.37 ± 0.59 under setting [1] and 2.31 ± 0.2 under setting [2].
